PMC2669833

Biological target: Alvinella pompejana Cu, Zn superoxide dismutase (Alvinella pompejana)
Test: SAXS

stoichiometry N: 2
Substance: Alvinella pompejana Cu, Zn superoxide dismutase (enzyme)
